Source: US20190112393 (published 2019)
Changes are numbered by the printed parent chain.

T1: mouse FcγRI (mouse, UniProt P26151)
T1 chain: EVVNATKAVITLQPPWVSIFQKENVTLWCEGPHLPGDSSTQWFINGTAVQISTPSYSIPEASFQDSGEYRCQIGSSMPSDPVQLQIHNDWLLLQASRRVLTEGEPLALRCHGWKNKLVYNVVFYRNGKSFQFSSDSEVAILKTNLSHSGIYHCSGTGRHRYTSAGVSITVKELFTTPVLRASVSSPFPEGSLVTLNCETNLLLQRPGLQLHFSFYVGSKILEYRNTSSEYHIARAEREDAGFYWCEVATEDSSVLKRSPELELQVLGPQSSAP

T2: human FcγRIIb (human, UniProt P31994)
T2 chain: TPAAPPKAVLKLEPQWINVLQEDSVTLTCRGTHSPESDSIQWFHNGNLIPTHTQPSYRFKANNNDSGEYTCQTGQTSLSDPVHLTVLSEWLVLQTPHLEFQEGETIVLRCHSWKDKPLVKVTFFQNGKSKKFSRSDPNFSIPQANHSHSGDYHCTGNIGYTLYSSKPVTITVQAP

T3: human FcγRIa (human, UniProt P12314)
T3 chain: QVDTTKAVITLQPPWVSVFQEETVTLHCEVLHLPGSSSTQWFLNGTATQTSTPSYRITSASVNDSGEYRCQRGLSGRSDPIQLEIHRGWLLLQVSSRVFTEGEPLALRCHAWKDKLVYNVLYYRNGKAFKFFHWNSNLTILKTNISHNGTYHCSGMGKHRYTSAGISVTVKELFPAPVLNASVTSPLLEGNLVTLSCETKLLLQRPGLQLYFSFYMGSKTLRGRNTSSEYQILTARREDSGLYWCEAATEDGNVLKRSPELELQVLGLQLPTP

T4: mouse FcγRIV (mouse, UniProt A0A0B4J1G0)
T4 chain: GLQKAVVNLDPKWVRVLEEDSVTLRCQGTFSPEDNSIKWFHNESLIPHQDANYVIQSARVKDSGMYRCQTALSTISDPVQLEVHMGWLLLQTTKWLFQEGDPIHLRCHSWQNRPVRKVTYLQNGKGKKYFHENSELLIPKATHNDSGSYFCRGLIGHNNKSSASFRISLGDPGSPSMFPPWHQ

T5: human IL-6 receptor (human, UniProt P08887)
T5 chain: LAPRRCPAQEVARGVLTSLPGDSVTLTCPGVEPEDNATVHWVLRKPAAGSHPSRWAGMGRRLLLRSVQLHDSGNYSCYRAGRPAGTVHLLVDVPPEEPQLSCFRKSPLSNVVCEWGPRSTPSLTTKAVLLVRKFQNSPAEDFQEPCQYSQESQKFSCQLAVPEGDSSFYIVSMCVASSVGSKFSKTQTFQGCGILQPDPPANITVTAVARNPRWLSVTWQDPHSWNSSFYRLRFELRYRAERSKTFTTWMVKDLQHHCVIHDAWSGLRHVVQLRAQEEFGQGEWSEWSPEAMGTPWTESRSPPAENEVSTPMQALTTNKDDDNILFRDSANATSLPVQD

B1: VH3/L(WT)-mIgG1-mF44 (antibody)
chain 1: QVQLQESGPGLVKPSETLSLTCAVSGHSISHDHAWSWVRQPPGEGLEWIGFISYSGITNYNPSLQGRVTISRDNSKNTLYLQMNSLRAEDTAVYYCARSLARTTAMDYWGEGTLVTVSSAKTTPPSVYPLAPGSAAQTNSMVTLGCLVKGYFPEPVTVTWNSGSLSSGVHTFPAVLQSDLYTLSSSVTVPSSTWPSETVTCNVAHPASSTKVDKKIVPRDCGCKPCICTVPEVSSVFIFPPKPKDVLTITLTPKVTCVVVDISKDDPEVQFSWFVDDVEVHTAQTQPREEQFNSTFRSVSELPIMHQDWLNGKEFKCRVNSADFPAPIEKTISKTKGRPKAPQVYTIPPPKEQMAKDKVSLTCMITDFFPEDITVEWQWNGQPAENYKNTQPIMDTDGSYFVYSKLNVQKSNWEAGNTFTCSVLHEGLHNHHTEKSLSHSPGK
chain 2: not shown
B2: VH3/L(WT)-mIgG1-mF46 (antibody)
chain 1: B1 chain 1 with S235D
chain 2: not shown
B3: VH3/L(WT)-mIgG1 (antibody)
chain 1: B1 chain 1 with D323A
chain 2: not shown
B4: BP151 (antibody)
chain 1: QVQLQESGPGLVKPSETLSLTCAVSGHSISHDHAWSWVRQPPGEGLEWIGFISYSGITNYNPSLQGRVTISRDNSKNTLYLQMNSLRAEDTAVYYCARSLARTTAMDYWGEGTLVTVSSASTKGPSVFPLAPSSKSTSGGTAALGCLVKDYFPEPVTVSWNSGALTSGVHTFPAVLQSSGLYSLSSVVTVPSSSLGTQTYICNVNHKPSNTKVDKKVEPKSCDKTHTCPPCPAPDYLGDDSVFLFPPKPKDTLMISRTPEVTCVVVDVSHEDPEVKFNWYVDGVEVHNAKTKPREEQYNSTYRVVSVLTVLHQDWLNGKEYKCKVSNAALPRPIEKTISKAKGQPREPQVYTLPPSRDELTKNQVSLTCLVKGFYPSDIAVEWESNGQPENNYKTTPPVLDSDGSFFLYSKLTVDKSRWQQGNVFSCSVMHEALHNHYTQESLSLSP
chain 2: not shown
B5: BP084 (antibody)
chain 1: B4 chain 1 with D235E, Y236L, D239G, V325M, A328K, R332K
chain 2: not shown
B6: 2B261 (antibody)
chain 1: B4 chain 1 with Y236L, D239G, Y298D, A328K, R332A
chain 2: not shown
B7: BP130 (antibody)
chain 1: B4 chain 1 with Y236L, D239G, V325M, A328K, R332K
chain 2: not shown
B8: BP464 (antibody)
chain 1: B4 chain 1 with Y236L, S269A, H270E, P273G, A328K, P398Y
chain 2: not shown
B9: BP455 (antibody)
chain 1: B4 chain 1 with Y236L, S269A, H270E, P273G, A328K, P398L
chain 2: not shown
B10: BP228 (antibody)
chain 1: B4 chain 1 with D235E, S269Q, H270D, P273G, A328D
chain 2: not shown
B11: BP237 (antibody)
chain 1: B4 chain 1 with S269Q, H270D, P273G, Y298D, R332K
chain 2: not shown
B12: BP239 (antibody)
chain 1: B4 chain 1 with S269Q, H270D, P273G, Y298D
chain 2: not shown
B13: BP182 (antibody)
chain 1: B4 chain 1 with Y236L, D239G, P273G, Y298D, A328K, R332K
chain 2: not shown
B14: BP367 (antibody)
chain 1: B4 chain 1 with Y236L, H270E, E271D, P273G, A328K, R332A
chain 2: not shown
B15: BP350 (antibody)
chain 1: B4 chain 1 with Y236L, S269E, H270E, P273G, A328K, R332A
chain 2: not shown
B16: BP262 (antibody)
chain 1: B4 chain 1 with D235E, Y236L, H270E, P273G, A328K, R332A
chain 2: not shown
B17: BP268 (antibody)
chain 1: B4 chain 1 with Y236L, H270E, P273G, Y298D, A328K, R332A
chain 2: not shown
B18: BP269 (antibody)
chain 1: B4 chain 1 with D235E, Y236L, H270E, P273G, Y298D, A328K, R332A
chain 2: not shown
B19: BP246 (antibody)
chain 1: B4 chain 1 with Y236L, S269Q, H270D, P273G, Y298D
chain 2: not shown
B20: BP233 (antibody)
chain 1: B4 chain 1 with D235E, P273G, A328K, R332K
chain 2: not shown
B21: BP220 (antibody)
chain 1: B4 chain 1 with Y236L, H270D, P273G, Y298D, A328K, R332K
chain 2: not shown
B22: BP243 (antibody)
chain 1: B4 chain 1 with H270D, P273G, A328K
chain 2: not shown
B23: BP249 (antibody)
chain 1: B4 chain 1 with H270D, P273G, Y298D, A328K
chain 2: not shown
B24: 6RL#9-IgG1 (antibody, V domains shown)
VH: QVQLVQSGAEVKKPGASVKVSCKASGYTFTSYYMHWVRQAPGQGLEWMGIINPSGGSTSYAQKFQGRVTMTRDTSTSTVYMELSSLRSEDTAVYYCARDDPGGGEYYFDYWGQGTLVTVSS
VL: QSVLTQPPSVSGAPGQRVTISCTGSRSNMGAGYDVHWYQLLPGAAPKLLISHNTHRPSGVPDRFSGSKSGASASLAITGLQAEDEADYYCQSHDSSLSAVVFGGGTKLTVLS
B25: FH4-IgG1 (antibody, V domains shown)
VH: QVQLVQSGAEVKKPGSSVKVSCKASGGTFSSYAISWVRQAPGQGLEWMGGIIPIFGTANYAQKFQGRVTITADESTSTAYMELSSLRSEDTAVYYCARERDYYDSSGYYDAFDIWGQGTMVTVSS
VL: ETTVTQSPSFLSASVGDRVTITCITTTDIDDDMNWFQQEPGKAPKLLISEGNILRPGVPSRFSSSGYGTDFTLTISKLQPEDFATYYCLQSDNLPFTFGQGTKLEIKR

Molecular target: T1, mouse FcγRI
Assay: SPR

Row | binding result | Binder
1 | no binding | B1
2 | no binding | B2
3 | no binding | B3

Molecular target: T2, human FcγRIIb
Assay: SPR

Row | Kd [nM] | Binder
4 | 40 | B4
5 | 500 | B5
6 | 1000 | B6
7 | 300 | B7

Molecular target: T2, human FcγRIIb
Assay: SPR
Remark: another data set of the same source

Row | Kd [nM] | Binder
8 | 4 | B8
9 | 4 | B9

Molecular target: T2, human FcγRIIb
Assay: SPR
Remark: another data set of the same source

Row | Kd [nM] | Binder
10 | 40 | B10
11 | 100 | B11
12 | 60 | B12

Molecular target: T3, human FcγRIa
Assay: SPR

Row | Kd [nM] | Binder
13 | 7 | B5
14 | 9 | B6
15 | 10 | B13

Molecular target: T4, mouse FcγRIV
Assay: SPR

Row | binding result | Binder
16 | no binding | B1
17 | no binding | B2
18 | no binding | B3

Molecular target: T2, human FcγRIIb
Assay: SPR
Remark: another data set of the same source

Row | Kd [nM] | Binder
19 | 100 | B14
20 | 100 | B15

Molecular target: T2, human FcγRIIb
Assay: SPR
Remark: another data set of the same source

Row | Kd [nM] | Binder
21 | 120 | B16
22 | 92 | B17
23 | 110 | B18

Molecular target: T3, human FcγRIa
Assay: SPR
Remark: another data set of the same source

Row | Kd [nM] | Binder
24 | 10 | B16
25 | 4.5 | B17
26 | 14 | B18

Molecular target: T3, human FcγRIa
Assay: SPR
Remark: another data set of the same source

Row | Kd [nM] | Binder
27 | 8 | B19
28 | 70 | B20
29 | 20 | B21
30 | 3 | B22
31 | 7 | B23

Molecular target: T5, human IL-6 receptor
Assay: SPR, pH 7.4, 3 uM Ca, 37C

Row | Kd [nM] | Binder
32 | > 31000 | B24
33 | > 34000 | B25
